Measured values from US20150307889.

Experiments:
[1] = tested on: zmPPL_1360-30a1 ZFN monomer (synthetic construct); test: cell_activity; details: ZFN pair with zmPPL_1360-r23a1 in bombarded haploid maize callus; control 5.0; locus target SEQ 32
[2] = tested on: zmPPL_1360-r23a1 ZFN monomer (synthetic construct); test: cell_activity; details: ZFN pair with zmPPL_1360-30a1 in bombarded haploid maize callus; control 5.0; locus target SEQ 32

Sequence | activity (indels per 1 million high quality reads) [1] | activity (indels per 1 million high quality reads) [2]
TTCGCGGTGGGACACTTG (double strand) [zmPPL_1360-30a1 half-site (PPL1 locus)] | 40 | 
ACTCCGTATGCGAAGGCA (double strand) [zmPPL_1360-r23a1 half-site (PPL1 locus)] |  | 40
